Results reported in IntAct's records for PubMed 15483055.

Target: pakc_dicdi pakC (UniProt Q55GV3)
Sequence (Q55GV3 whole entry): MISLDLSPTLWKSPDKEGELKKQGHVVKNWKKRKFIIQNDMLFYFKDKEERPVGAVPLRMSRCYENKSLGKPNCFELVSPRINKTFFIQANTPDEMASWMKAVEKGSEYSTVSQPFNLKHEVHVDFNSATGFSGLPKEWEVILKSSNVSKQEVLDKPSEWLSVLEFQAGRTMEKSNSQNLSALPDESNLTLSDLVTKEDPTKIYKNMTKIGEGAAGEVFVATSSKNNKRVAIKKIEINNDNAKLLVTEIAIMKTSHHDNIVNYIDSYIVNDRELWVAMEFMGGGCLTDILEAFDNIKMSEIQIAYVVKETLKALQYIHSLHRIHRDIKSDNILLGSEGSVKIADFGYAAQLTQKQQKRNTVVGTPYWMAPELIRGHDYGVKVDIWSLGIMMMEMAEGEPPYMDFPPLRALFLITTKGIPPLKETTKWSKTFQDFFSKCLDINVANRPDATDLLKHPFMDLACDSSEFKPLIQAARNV

Rho-related protein racB (Dictyostelium discoideum (Slime mold)), P34148 T17N, sequence (P34148 whole entry T17N): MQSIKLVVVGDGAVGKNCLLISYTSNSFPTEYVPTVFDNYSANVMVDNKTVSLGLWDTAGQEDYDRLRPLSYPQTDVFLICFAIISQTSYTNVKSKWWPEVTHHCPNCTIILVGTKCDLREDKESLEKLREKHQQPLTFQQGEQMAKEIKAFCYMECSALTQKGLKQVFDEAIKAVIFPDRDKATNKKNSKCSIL

effect of a mutation on the interaction: decreasing interaction
Substance: Rho-related protein racB (Dictyostelium discoideum (Slime mold)), P34148 T17N
